Assay results published in US20250051458A1, “Methods for Treating Neurodegeneration Targeting IGF1/IGF1R” (The Schepens Eye Research Institute, Inc., priority 2021, published 2025).

Assays:
retinal microglia = experiment: Bulk RNA-seq gene profiling of isolated retinal microglial cultures, with or without LPS; assay type: cell-based, mouse
Procedure: We performed RNA-seq using four Igfbpl1−/− mice retina and four WT mice retina. The raw data was quality controlled and aligned on Mus musculus (mouse) reference genome (GRCm38) with STAR v2.5.0a (PMID: 23104886), FeatureCount (v0.6.1) (PMID: 24227677) was used to count the number of read mapped to each gene. Transcripts Per Million (TPM) was calculated for each gene based on the length of the gene and reads mapped to that gene. Differential expression analysis between Igfbpl1^−/− and WT mice was performed using the DESeq2 R package (v1.22.2) (PMID: 25516281). gene set over representation analysis for the differentially expressed genes was performed with the same above described method. We also downloaded lists of genes with function related to “Microglia”, “Astroglia”, “neuron”, and “photoreceptor” from genecard (www.genecards.org) with relevance score>5, and determined the percentage of and calculated the proportion of differentially expressed genes in each of those gene lists. […]
To investigate if IGFBPL1 directly mediates microglial function, we studied gene profiling changes in isolated microglial cultures treated by IGFBPL1. Retinal microglia were purified from mice expressing green fluorescence protein (GFP) driven under a microglial specific promoter Cx3cr1 (Cx3cr1-Gfp) using fluorescence-activated cell sorting (FACS)^12. […]

[1] = test system: Igf-1r conditional knock out on microglia mice; experiment: Microbead-induced glaucoma in mice with Igf-1r specific knock out on microglia; assay type: in vivo, mouse
Procedure: Adult (10-12 weeks old) male and female C57BL/6J (B6) (The Jackson Laboratory, 000664), Cx3cr1^GFP (The Jackson Laboratory, 005582), DBA/2J mice (The Jackson Laboratory, 000671) Igf1r^(lax) inducible knockout mice (The Jackson Laboratory, 012251) as well as Cx3cr1^tm2.1(cre/ERT2) mice were obtained from the Jackson Laboratory. Igf1r^(lax) mice were crossed with Cx3cr1^tm2.1(cre/ERT2) mice to generated Igf-1r specific knock out on microglia after 3 consecutive days injection of 100 mg/kg tamoxifen to mice. IGFBPL1 deficiency mice at a C57BL/6J genetic background (Knockout Mouse Project Repository, University of California at Davis) were used in following experiments. Mice of both genders were randomized into control and experimental groups. All experimental procedures and use of animals were approved and monitored by the Institute's Animal Care Committee and conform to the standards of the National Institute of Health and the Association for Research in Vision and Ophthalmology.
Elevated IOP was induced unilaterally in adult mice (10-12 weeks old) as described previously^21. […] Antibiotic ointment will be applied topically on the cornea after the injection, and then leave the operated mice to recover on a warm pad and monitored every 15 minutes until awake and fully sternal. […]

B1: IGFBPL1: insulin-like growth factor binding protein like protein 1; recombinant protein (R&D system, 4130-BL) (protein)
chain: LGLRDAGRRHPECSPCQQDRCPAPSPCPAPWISARDECGCCARCLGAEGASCGGPVGSRCGPGLVCASRASGTAPEGTGLCVCAQRGAVCGSDGRSYSSICALRLRARHAPRAHHGHLHKARDGPCEFAPVVLMPPRDIHNVTGTQVFLSCEVKAVPTPVITWKKVKHSPEGTEGLEELPGDHVNIAVQVRGGPSDHETTSWILINPLRKEDEGVYHCHAANAIGEAQSHGTVTVLDLNRYKSLYSSVPGDLL
With B1 the “Reversal of LPS-induced microglial gene profile (bulk RNA-seq)” value (retinal microglia; IGFBPL1 added 6 hr after LPS stimulation) was “completely reverted LPS-induced microglial gene profile to the control level”, the “Microglial gene profile versus vehicle controls (bulk RNA-seq)” value (retinal microglia; IGFBPL1 alone, no LPS) was “no different between cultures treated with IGFBPL1 alone and vehicle controls” and the “pSTR amplitude and RGCs (neuroprotective effect)” value ([1]; IGFBPL1 at day 3, 10 and 17 post microbeads-induced glaucoma, IGF-1R knocked out on microglia) was “neuroprotective effects diminished”. The “Contrast sensitivity (CS) and visual acuity (VA)” value ([1]; Igf-1r−/− mice with MB induced glaucoma) was “very limited protective capacity”.
